Measurements from the supplement of paper PMC9170038.

Tested on: MS2 coat protein
Experiment: apparent KD of MS2 coat protein; designed switch direction (-1 OFF switch, 1 ON switch): 1; higher = weaker reporter binding
In short: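 The buffer was Tris-HCl pH 7.5 with KCl, MgCl2, BSA, DTT, tRNA and Tween-20. In it, SNAP-549-labelled MS2 coat protein was titrated in doubling steps from 0.7 or 1.5 nM to 3 µM over chip-bound RNA switches transcribed by stalled E. coli RNA polymerase on Illumina chips. Apparent KD is the per-design median over clusters of curve fits to normalised fluorescence.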

[1] = Eterna round: R95, input ligand: microRNA oligo, concentration not stated
[2] = input ligand: microRNA oligo, concentration not stated
[3] = Eterna round: R95, input ligand: FMN 200 uM
[4] = Eterna round: R95, input ligand: none

Sequence: CUUGGGUGGCUGGAGGAUAUUCGAGUGGUAACAUGAGGAUCACCCAUGUGUCGCGCGGUACACGAGGAGAAGGCUGGCGGCCGGC (puzzle: Same State 2)
- apparent KD of MS2 coat protein [1]: 84.8 nM

Sequence: CUUUUUAAUGCAGGAUAUGAUCAACAUGAGGAUCACCCAUGUGGCGUUGUGAGUAGGGAGAGUGAUCAGAAGGGCAUCUCCUCG [SS-NG2-LRO08] (Eterna round: R96, puzzle: Same State NG 2)
- apparent KD of MS2 coat protein (input ligand: FMN 200 uM): 68 nM
- apparent KD of MS2 coat protein [2]: 45.1 nM
- apparent KD of MS2 coat protein (input ligand: none): 62.4 nM

Sequence: GAAAAACAUGAGGAUCACCCAUGUGAGAAUAUGGGAGGAUAUACGAGGACGAGAGUCAAGGUAGAAGGCCUAAAAG [Garnet 75] (Eterna round: R96, puzzle: Same State 1)
- apparent KD of MS2 coat protein (input ligand: FMN 200 uM): 45.3 nM
- apparent KD of MS2 coat protein [2]: 255 nM
- apparent KD of MS2 coat protein (input ligand: none): 314 nM

Sequence: GAAAAGGCGACGCAGGAUAUGAAAGGUGAAACAUGAGGAUCACCCAUGUGCUACCUUCCGAUAAAUCAGAAGGGCGACGCCAAGC [Soleusat] (puzzle: Same State 2)
- apparent KD of MS2 coat protein [3]: 9.79 nM
- apparent KD of MS2 coat protein [1]: 8.54 nM
- apparent KD of MS2 coat protein [4]: 9.6 nM

Sequence: GAAAGAGGAAGCGAGGAUAUCGUGUUGAGUACAUGAGGAUCACCCAUGUUGUAGGUAGAGGUAGGCGAGAAGGCGCAGGAGAAGA [JR_SS2_Sub0101] (puzzle: Same State 2)
- apparent KD of MS2 coat protein [3]: 60 nM
- apparent KD of MS2 coat protein [1]: 40.6 nM
- apparent KD of MS2 coat protein [4]: 55.4 nM

Sequence: GAAGACAUAGUUCAGGAUAUAGGAAUAGUCACAUGAGGAUCACCCAUGUGCAUUUAUAUGCGCACUUAGAAGGGAGGUAGUUAUC [SameState2 Malc#23] (Eterna round: R96, puzzle: Same State 2)
- apparent KD of MS2 coat protein (input ligand: FMN 200 uM): 39.4 nM
- apparent KD of MS2 coat protein [2]: 29.4 nM
- apparent KD of MS2 coat protein (input ligand: none): 39.4 nM

Sequence: GAAGCGGCAGAAUAAAACAUGAGGAUCACCCAUGUCGCGGUUUAGGAUAUGGGACGGGUAUGAACCCAGAAGGAGACCGCAGGC [Eternabot solution 2] (Eterna round: R96, puzzle: Same State NG 3)
- apparent KD of MS2 coat protein (input ligand: FMN 200 uM): 32.7 nM
- apparent KD of MS2 coat protein [2]: 33.8 nM
- apparent KD of MS2 coat protein (input ligand: none): 56.2 nM

Sequence: GAAGGAUGAGCGUAGGAUAUAGGAGGAGUGACAUGAGGAUCACCCAUGUAGUAAGAGGGAGGGUACUAGAAGGACGAGGAAGAAG [JR_SS2_Sub066] (puzzle: Same State 2)
- apparent KD of MS2 coat protein [3]: 602 nM
- apparent KD of MS2 coat protein [1]: 6 nM
- apparent KD of MS2 coat protein [4]: 16.3 nM

Sequence: GAAGGAUGAGCGUAGGAUAUAGGAGGAGUGACAUGAGGAUCACCCAUGUGGUAUGAGGGAGGAUUCUAGAAGGACGCGGUAGAAG [JR_SS2_Sub065] (puzzle: Same State 2)
- apparent KD of MS2 coat protein [3]: 89.9 nM
- apparent KD of MS2 coat protein [1]: 150 nM
- apparent KD of MS2 coat protein [4]: 161 nM

Sequence: GACCGCGAGGAAGGAUAUCGAGCCUUAUUGGCUCGAGAAGGUCCAUAAAGGACAUGAGGAUCACCCAUGUGGUGAGAAGCGGUC [Mat - Same State NG 1 - JL mod - D76] (Eterna round: R96, puzzle: Same State NG 1)
- apparent KD of MS2 coat protein (input ligand: FMN 200 uM): 187 nM
- apparent KD of MS2 coat protein [2]: 1430 nM
- apparent KD of MS2 coat protein (input ligand: none): 1160 nM

Sequence: GACGAGGUGGGAGGAUAUAGCCCGUGGACUGUACCCGAACAUGAGGAUCACCCAUGUCGAGAAACCUAGAAGGCCUACAACGUA [Eternabot solution 11] (Eterna round: R96, puzzle: Same State NG 2)
- apparent KD of MS2 coat protein (input ligand: FMN 200 uM): 16.8 nM
- apparent KD of MS2 coat protein [2]: 10.8 nM
- apparent KD of MS2 coat protein (input ligand: none): 38.4 nM

Sequence: GAGAGAGGAAGCGAGGAUAUCGUGUUGAGUACAUGAGGAUCACCCAUGUUGUAGGUAGAGGUAGGCGAGAAGGCGCAGGAGAAGA [JR_SS2_Sub0100] (puzzle: Same State 2)
- apparent KD of MS2 coat protein [3]: 50.2 nM
- apparent KD of MS2 coat protein [1]: 39.3 nM
- apparent KD of MS2 coat protein [4]: 41 nM

Sequence: GAGAGAGGAAGCGAGGAUAUCGUGUUGAGUACAUGAGGAUCACCCAUGUUGUAGGUAGAGGUAGGCGAGAAGGCGCAGGAGAGGG [JR_SS2_Sub099] (puzzle: Same State 2)
- apparent KD of MS2 coat protein [3]: 43 nM
- apparent KD of MS2 coat protein [1]: 43.2 nM
- apparent KD of MS2 coat protein [4]: 51 nM

Sequence: GAGAGAGGGUGAGGAUAUGCAGUAAUAAUGAUAGCAGAAGGCACAGACAUGAGGAUCACCCAUGUGGGAAUAAUCCAGAGAGAG [Parity 2 - Jieux - Same State NG 1] (Eterna round: R96, puzzle: Same State NG 1)
- apparent KD of MS2 coat protein (input ligand: FMN 200 uM): 291 nM
- apparent KD of MS2 coat protein [2]: 177 nM
- apparent KD of MS2 coat protein (input ligand: none): 305 nM

Sequence: GAGAGAUGGCGAGGAUAUUCGGUGAUAAUGAUAGAAGAAGGCGCUGACAUGAGGAUCACCCAUGUGGGAAUAAUCCAGAGAGAG [Parity 18 - Jieux - Same State NG 1] (Eterna round: R96, puzzle: Same State NG 1)
- apparent KD of MS2 coat protein (input ligand: FMN 200 uM): 283 nM
- apparent KD of MS2 coat protein [2]: 73.8 nM
- apparent KD of MS2 coat protein (input ligand: none): 226 nM

Sequence: GAGCCAGUCCGAGGAUAUUCAUAUUAAACAUGAGGAUCACCCAUGUAGGCUCAGAAAGAGCCUUGGGAGAAGGCGGACUGGCUC [Xeonanisa<<1] (Eterna round: R96, puzzle: Same State NG 2)
- apparent KD of MS2 coat protein (input ligand: FMN 200 uM): 16.7 nM
- apparent KD of MS2 coat protein [2]: 182 nM
- apparent KD of MS2 coat protein (input ligand: none): 201 nM

Sequence: GAGGAACAGGCCAACAUGAGGAUCACCCAUGUCCUCGCACUUCAGGAUAUCUGGAGGAAGAAGAAAGAGAAGGGAAGGUGAAGC [AK SSNG3-V2-34.2] (Eterna round: R96, puzzle: Same State NG 3)
- apparent KD of MS2 coat protein (input ligand: FMN 200 uM): 202 nM
- apparent KD of MS2 coat protein [2]: 30.1 nM
- apparent KD of MS2 coat protein (input ligand: none): 19.3 nM

Sequence: GAGGAGGAUACAGGAUAUAUACAUGAGGAUCACACAUACAUGACAUGAGGAUCACCCAUGUUUGUAUAGAAGGGUAAGAGGAGG [Seems to be working] (Eterna round: R96, puzzle: Same State NG 2)
- apparent KD of MS2 coat protein (input ligand: FMN 200 uM): 51.2 nM
- apparent KD of MS2 coat protein [2]: 24.2 nM
- apparent KD of MS2 coat protein (input ligand: none): 66.1 nM

Sequence: GAGGAUGAUUUACAGGAUAUAUAGAAGAUGACAUGAGGAUCACCCAUGUAAGAGAAAGGAGGGAGAUAGAAGGGUAAGGGAUGUG [JR_SS2_Sub40] (puzzle: Same State 2)
- apparent KD of MS2 coat protein [3]: 37.2 nM
- apparent KD of MS2 coat protein [1]: 24.5 nM
- apparent KD of MS2 coat protein [4]: 42.3 nM

Sequence: GAGGCACAUGAGGAUCACCCAUGUGGGUAUAACAUAGGAUAUCACCAACAAAAUACCCGGUGAGAAGGAUGAUGCC [Ravevele] (puzzle: Same State 1)
- apparent KD of MS2 coat protein [1]: 158 nM

Sequence: GAGGGACAGACCAACAUGAGGAUCACCCAUGUCCUCGCAGGUCAGGAUAUCCCGCCAACAGGCGAGGAGAAGGGACGGUGAACC (Eterna round: R96, puzzle: Same State NG 3)
- apparent KD of MS2 coat protein (input ligand: FMN 200 uM): 610 nM
- apparent KD of MS2 coat protein [2]: 672 nM
- apparent KD of MS2 coat protein (input ligand: none): 713 nM

Sequence: GAGGGAUGAGCGUAGGAUAUAGGAGAAGUGACAUGAGGAUCACCCAUGUAGGAGGAGGGAUGAGACUAGAAGGACGAGGUAGGAG [JR_SS2_Sub061] (puzzle: Same State 2)
- apparent KD of MS2 coat protein [3]: 37.5 nM
- apparent KD of MS2 coat protein [1]: 54.7 nM
- apparent KD of MS2 coat protein [4]: 67.9 nM

Sequence: GAGGGCGAAAGCAACAUGAGGAUCACCCAUGUCCUCGGAGGGCAGGAUAUCCGGCGGUAGCCGAAGGAGAAGGGUCGGUAAGAA [AK SSNG3-V2-33.1] (Eterna round: R96, puzzle: Same State NG 3)
- apparent KD of MS2 coat protein (input ligand: FMN 200 uM): 159 nM
- apparent KD of MS2 coat protein [2]: 107 nM
- apparent KD of MS2 coat protein (input ligand: none): 584 nM

Sequence: GAGUGAUGGGUUAGUAACUGCUAGGAAGGACAUGAGGAUCACCCAUGUGAGUAACGAGCUUGUGCUCGUCUUAUAAG [JR_SHM208A_Sub021] (puzzle: Sensor for hsa-mir-208a)
- apparent KD of MS2 coat protein [3]: 167 nM
- apparent KD of MS2 coat protein [1]: 89.4 nM
- apparent KD of MS2 coat protein [4]: 325 nM

Sequence: GAGUGGAGGAAAGGAUAUACAAUGAUAAUCACAGUAGAAGGUUCUAACAUGAGGAUCACCCAUGUAGGACUAUACCAGAGAGGG [Parity 46 - Jieux - Same State NG 1] (Eterna round: R96, puzzle: Same State NG 1)
- apparent KD of MS2 coat protein [2]: 11.4 nM

Sequence: GAGUGGCAGUAAGGAUAUAUAGUGAUAAUCACAGUAGAAGGUACUGACAUGAGGAUCACCCAUGUAGGACUAAUCCAGAGAGAG [Parity 42 - Jieux - Same State NG 1] (Eterna round: R96, puzzle: Same State NG 1)
- apparent KD of MS2 coat protein (input ligand: FMN 200 uM): 73.6 nM
- apparent KD of MS2 coat protein [2]: 26.4 nM
- apparent KD of MS2 coat protein (input ligand: none): 37.5 nM

Sequence: GAGUGGCAGUUAGGAUAUAUAGUGAUAAUCACAAUAGAAGGAACUGACAUGAGGAUCACCCAUGUAGGACUAAUCCAGAGAGAG [Parity 40 - Jieux - Same State NG 1] (Eterna round: R96, puzzle: Same State NG 1)
- apparent KD of MS2 coat protein (input ligand: FMN 200 uM): 56.9 nM
- apparent KD of MS2 coat protein [2]: 21.7 nM
- apparent KD of MS2 coat protein (input ligand: none): 26.8 nM

Sequence: GAGUGGUAAAGAGGAUAUGCAUUGUUAUUAAAUGCAGAAGGUUUUAACAUGAGGAUCACCCAUGUAGGACUAUUCCUGUGUUUC [Parity 65 - Jieux - Same State NG 1] (Eterna round: R96, puzzle: Same State NG 1)
- apparent KD of MS2 coat protein [2]: 11.4 nM
